Laboratory results published in the domain aggregation screens of Martell et al. (2025).

Experiment: soluble fraction after stress (log2 fold change); higher = more stays soluble; pooled small domains, quantitative proteomics
Settings: stress: 75 degC
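Further: 20 min heating vs room temperature control held 20 min.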

Sequence: HMDTLESYVKRLEKLEGIADSFKGVSKAFALQAGREIRIMVESEKITDEEAVWLSKDIARRIENELEYPG
- soluble fraction (log2): -0.331

Sequence: HMDTNKMLIVNSISNGMKRLQELQDPQLAEIQKTFSGLDEQKATSAQLAQINNIINNRIAEIEG
- soluble fraction (log2): 0.23

Sequence: HMDTNPKVIITMDGVNVRSSASTGSDILFIAEKGEEYELISESGDFYKILYEGNKEGYVASWLVETSE
- soluble fraction (log2): 0.239

Sequence: HMDTNVKLLSPKQADFFASKLANNQNFSSKFAKVGEDMQPFIERISSELQQDISQVIVYMPYLLESGFKQ
- soluble fraction (log2): -0.328

Sequence: HMDTNVPVPNVNGMTLNQAKAALEAAGFHVAVNWLGEKSDNNSVISYEPNGSAAKGTTITITVIAQPEQDG
- soluble fraction (log2): 0.0988

Sequence: HMDTPPGLSPEEQAIIDIITTRGDATINELTASIDIPTPRLMGMLVDMEFRSLIAAIPGGRYRI
- soluble fraction (log2): -1.82

Sequence: HMDTRQFWEQWVADEIRTFEHKDRKQLFGWFEGNKPKLGQMKKLGYGDLLTKVQTSWDEIYQQKE
- soluble fraction (log2): 0.0857

Sequence: HMDTRSSARKALDAVNLLLETYGAKAYQHSYEIAGRRQQFQTPGDFMAFRSRLMAEVATEENAARINA
- soluble fraction (log2): -0.211

Sequence: HMDTSKIDYSEFITMLDKGEVESVVLKSDTLTVTLKHGTGMAAQTKTVTLMEDLSELTKRLEKAGVKSFDK
- soluble fraction (log2): 0.614

Sequence: HMDTVIAEVTASILNLRRSAGTSSDIIGKLNKGEKVSIIGGSGNWKNVRTSGGITGWVYHEYLSTY
- soluble fraction (log2): -1.46

Sequence: HMDTYDSIDSILEERHLSRRKLAQAIGLPPSTFQSMMSRKSGMTLEVLMKIVSYLQVSPDAFW
- soluble fraction (log2): -3.17

Sequence: HMDVAWDAIKAKLKEVVDAEDKAHPLNDDQIVKALGESGITIARRTIAKYRDLLGIPPARKRKA
- soluble fraction (log2): -0.213

Sequence: HMDVIGLEAAKSAAVKDAGISSPTFTKATLDRDDGRSLYEIEFISGSTKYEYDIDALTGSVLSKKTRALS
- soluble fraction (log2): 0.207

Sequence: HMDVKPWERQEGESAKAFEAFTIYAGLGADRSLRAVAQQLGKSKTLMDRWSSTYSWVARAAEYDADLQRK
- soluble fraction (log2): -0.489

Sequence: HMDVLFGNRLRQLLDERNISQAHFADRIGVSRSRMNNYVAQRSEPDYATLIRIANTLDTSIDFLLGKS
- soluble fraction (log2): -2.36

Sequence: HMDVLIQEIGKRLRIQRLAMGLTQEELAKRAGISLSTLKLMEQQGKGSLQRLAKVAVVLDLDGDLRGLF
- soluble fraction (log2): -2.87

Sequence: HMDVLKVFSHNVRRYRTQLGLSQETVAFRTGLHRTYISAVERGKRSISLDNIQKIADALEVETYLLFI
- soluble fraction (log2): -1.76

Sequence: HMDVLNPGDKAVTTASWLNFRTGPGMQNKVASVLARNTTVNIIEKSNEWYKVSLANGSTGYVHGMYLSKIT
- soluble fraction (log2): -1.73

Sequence: HMDVLSQYGSRGEEVGKIQTRLKSWGYFSGEVTGYYGSQTTEAVKRFQQKHGLSATGVADRKTLELIGIS
- soluble fraction (log2): -0.307

Sequence: HMDVLTARENEVLQLLAKGMSNKEIASVLVITEKTVKAHVSSILSKLNLSDRTQAALYAVKNGI
- soluble fraction (log2): -0.763

Sequence: HMDVNMLVTGMLHKGEKSFVRVSFLRGKDWAEGIVPDAKIEKSQGFMEEEVARLEAYLLEQKSMIMEQA
- soluble fraction (log2): -1.83

Sequence: HMDVQGFVMDLDKPLDKEPIVEGFELKLEDSLTLVAAVNKDKSINSLFDELSKLGIKVKSMRNPP
- soluble fraction (log2): 0.0316

Sequence: HMDVQNLTKKNQEFINIVTHQLLQSGKSDEDIQTILAKTLPEIIEKQKQGIPARSFLGAPTAWAAQFI
- soluble fraction (log2): -0.0596

Sequence: HMDVRLAKVYMLPANPYLRFIEFDDGTHGKFRAKPGKFGLGSVVKVKREDGDMYTLEGNYDGKDRL
- soluble fraction (log2): -0.763

Sequence: HMDVSPVRLIREARGLSQVEVAKAAGLSRAAYQNIEVGKTVPRASTMVNIARALGVSMDDLLAPV
- soluble fraction (log2): -0.437

Sequence: HMDVSVPDVTGTRLDRAQSLLEAQGLTLGKVEEFFHATEPAGIVYDQEPRPGTRVDEGTAISVSVSKGPEA
- soluble fraction (log2): 0.323

Sequence: HMDWFDELKVSTDDSGRVTAPEESEFMFQTSNEKIFAGGDMVRGSDLVVTAIWEGRQAAEGIMDYLD
- soluble fraction (log2): -0.02

Sequence: HMDWPDDETIARIYALIKSDISSQARKVMELRFSEGMPFARIAAAMGISETAVYRHLSHALTVIRQKLN
- soluble fraction (log2): -2.14

Sequence: HMDWREMTAWMAELLKRRTGDDVETWNARVRESGAHDEASLRAWLTEQGVTGYAQTLLVMERFGYPDFF
- soluble fraction (log2): -2.89

Sequence: HMDYADISYKIFMNHIKNGQVERVELSGDPRIMGKLKDGTYFVTDNPRTENFKEFLLLNNVQVIETN
- soluble fraction (log2): 0.738

Sequence: HMDYEVPEELQQKFEEFPRLKEAFYQLTPGRQHQYLYYFSQAKRSQTRYNRIDKYMNAILQGKGMK
- soluble fraction (log2): -1.67

Sequence: HMDYINALTTAGITDAKVIVTAPFDVSGTAALTGIYKAYEDITGSSLNEIAKAVGVEELITTGNLA
- soluble fraction (log2): 0.23

Sequence: HMDYKAELDNIIRDHLDMEGPLLPVLHAVMARFSYIPKDAIPIIARKLNLSSAEVSGVISFYHDFKKEK
- soluble fraction (log2): -1.81

Sequence: HMDYKYYIVKEPMVVKNLELPVGTRIVYFNTSLFGDSESSRPLKEKNIYQIFFPDDKPLIWGGVPVSLIER
- soluble fraction (log2): -2.24

Sequence: HMDYNLTKNQKIVFNLLQNSGEPLKAYTILESLKREGLKSPLQVYRALDKLVELGIIHKIESQNSFI
- soluble fraction (log2): -0.334

Sequence: HMDYNMEEWSLTADQLKSGDTILILNLGKTATLLESTRGKKNVRVRMGNIKTIVETSSIRGNPHQ
- soluble fraction (log2): -1.77

Sequence: HMDYPFQYFNYSHLRILGVPAQLIKAVRKAPTLDAIEQLSGLSEKTKLWLLELATEPKLEDVLFDPGR
- soluble fraction (log2): -1.98

Sequence: HMDYRSMSGLQKAALLIMSVGEETAAKLFQLMHDDEIREISQTMANLGTVNATVIERLFVEFADAISS
- soluble fraction (log2): -1.1

Sequence: HMDYVKTLGETINVRVAASTDADIYKLLPGGEILNRVGYNEEWTKVMVDGSTFYVYSEYVIQTEPPA
- soluble fraction (log2): -1.32

Sequence: HMDYYSILGVDRNATGEDIKKAFKKKAMKYHPDRNPDNKESERKFKEAKEAYDTLSNPQKKSMYDQFGT
- soluble fraction (log2): 0.149

Sequence: HMEAEDLRDWVGARGIAYTALRPAGIAVVNGRRVDVVSEGAFVNRDDPVEVVRVEGRRIVVKP
- soluble fraction (log2): -0.0876

Sequence: HMEAGTEYVERAADYIRSHFQEDLTVSKLALYVGLNRSYLTTVFQNTLHVSPQQFLMRFRMERAAQLLD
- soluble fraction (log2): 0.0997

Sequence: HMEAGTVTVTHAAVYIRSGPGVSYPIAGKAAKNDTYTVLQKDGDWFQIRLPQGNTGWIAGWLVETGT
- soluble fraction (log2): -1.69

Sequence: HMEAISIYPNPTDNELHLSTSVQEVRIYNMYGIEVTRAANTDRLAVSHLPKGVYLVHADGAVLKMIK
- soluble fraction (log2): -2.7

Sequence: HMEAISSESIKKMIKSYVSGEDASKPLSDQQIADLLVKEGYMISRRTVAKYRDELGILSSSKRKR
- soluble fraction (log2): -0.152

Sequence: HMEAKQMDAWIVSEAKRQGGKIEPAAAYELSRHTATDTSIASQEIAKLLMYVDFKRPVTREDVVELVSA
- soluble fraction (log2): 0.0579

Sequence: HMEALPELTDRQRQVYEFIEARIAEWGYPPTIREIGQHLGIKSTNGVADHLKALKRKGYLQQ
- soluble fraction (log2): -0.566

Sequence: HMEALTPREREVLTLMGQGRSNAEIATLLSIAPRTAKVHVQNILSKLGATNRTEAVSLAVRQGLIS
- soluble fraction (log2): 0.343

Sequence: HMEASVNAPMPGKIVSVSVSEGQQVNAGDVLLILEAMKMQNEITADAAGTVKAINVNAGQSVKNGDSLVIL
- soluble fraction (log2): 0.832

Sequence: HMEAVGLTPRQGDVLALLLQGKPNKLIARDLNLSVETVKDHVAAVLRALGVSTRTQAVLAVSQMQQQAAQ
- soluble fraction (log2): -0.444

Sequence: HMEAVLTISPGMYSESVSAELVRLGIITNQKEFNSYLVNNGYAERIQTGDFKIKADMSYDEIARIITK
- soluble fraction (log2): -0.563

Sequence: HMEAYDTMEDRTTLAPGFAKLDKRERYILHLRFFEGLTQSQIAERVGISQMHVSRLIRRSLEKLREEIGD
- soluble fraction (log2): -2.67

Sequence: HMEAYSAEAVRFRIKAMIESETVDDVMSDDKIVERLLADGVDIARRTVAKYREAMNIPSSVKRRRKLKGM
- soluble fraction (log2): -1.92

Sequence: HMEDDRMLVWFFRKSIQNGAQSEAEGRPIFEGKDYVHIQQPGERDYIEREAHQGDIGRWPRHWQAYQEGR
- soluble fraction (log2): 0.246

Sequence: HMEDEAVMQLPLSELKGLSPELLAILNGAGYEKLKDVLDLEREDIERIPGMTPERNEQLVAFLAELTE
- soluble fraction (log2): 0.619

Sequence: HMEDELFSVARAAFPEYASKIHMNYGSTVQSIARQSGVLTVSETKQLNENQQISYLEYSNGAVVLALA
- soluble fraction (log2): -0.0187

Sequence: HMEDELVMERFDINELVKSVVNANELRATQKNLSITYDILDTPLYVWADEYKVEEVVTNYLS
- soluble fraction (log2): 0.00277

Sequence: HMEDIASESVKRVIRKIIDDEDKKSPLSDQAIVEILAKGEGIVIARRTVAKYREMMGILPSSKRKKH
- soluble fraction (log2): -1.4

Sequence: HMEDKIEESLEDNISELFAKTKDKYTLINDLYSKGYTVEELSRFSGLPSGEVRLVISLNSKN
- soluble fraction (log2): -0.0653

Sequence: HMEDKPITKEQKQAMFALLREHFSGDEGNAVYTAVLEREGLAPGDKIMSSVYDRLIDGINEAIRQKLEAGA
- soluble fraction (log2): -0.0206

Sequence: HMEDNLMIVVQVNGKKRSEIKVSIDASEDQIKQTALAEPNVQKFVEGHTIRKMILVPSKLLNIVV
- soluble fraction (log2): -1.65

Sequence: HMEDPKLAQLTEQERKILDLIADGLTNRQIAEKMFLAEKTVKNYVSTILAKMGMSNRSEAAAYVARLEAG
- soluble fraction (log2): -0.0697

Sequence: HMEDPPISQEQRQALFKMAHDHLGKDEGNKAILTLIQSHGLNSTTGMKVSTYNTIMEELVSTIQSLAA
- soluble fraction (log2): -0.0374

Sequence: HMEDPVAQEARAAFEVGRLLAAATGPVTLAAIRRAIDLPEERLEEILRRLEESGAVRRARDGWLPG
- soluble fraction (log2): -0.0316

Sequence: HMEDVDLFTKAMAALPNRYRDILLLRYSHGYTVEEISDILSMKPENVKKTIQRARKKLGEILEAEG
- soluble fraction (log2): -1.25

Sequence: HMEEDPVIAAQRFLNIFRQLHIFTAAKRKEFDELLLKQPASVKGMFASLPGGSVLQEYVNNLEQNAG
- soluble fraction (log2): -0.564

Sequence: HMEEFIEHTVEKGEFLSAIIVAYNQHLKSKGFKSITTRDILNANPKLKPELIQVGQKIKIPRRKK
- soluble fraction (log2): -1.71

Sequence: HMEEFLSFIADILEVDKNTLTLETSQDDVETWDSLMQLRLLGEIEAKYGVMIPMERISTIKKLNDFYQYIK
- soluble fraction (log2): -1.12

Sequence: HMEEIIPIRFLRHRVKRRETIFGLTQKYNITEDQLKRYNTRLYSEALERKMVLQIPVFPEVDED
- soluble fraction (log2): -2.29

Sequence: HMEEITLQEQINFIKDMLLNKEKFHLTDVITKKSKIYVVSLFLALLELIRLEEINFRQTQNFSDIIISRI
- soluble fraction (log2): 0.0172

Sequence: HMEELGKVRPELDGNEIAKVLGITPGPVLGRAYTYLLSVRLDEGPIGPDVARERLLAWWAEQPES
- soluble fraction (log2): -1.2

Sequence: HMEELIEMNGVVMEILPDSRYRVTLDNGHKLIAYTGGKMKKNHIRILAGDKVTLELSPYDINNGRITFRHI
- soluble fraction (log2): -1.66

Sequence: HMEELTDSELNNLYRELFIARSNASDGVGIIEQKTIKGITYRLSNDNNYLIKELGNKEYIYKNGVWEEYT
- soluble fraction (log2): -0.155

Sequence: HMEENNIVIYITGAVKKEGIYEIKENSRISDAIEAAGGLLENANIKDINLAYIIEDGVKIYIPTNEEVNK
- soluble fraction (log2): -0.409

Sequence: HMEEPFRIEKKGDIYYISGKTVERLVAMTDLDNDSAVKRLQRTLKRMGVEDALREHGINPGDTVVIGNYEF
- soluble fraction (log2): -0.201

Sequence: HMEEQIEVPVQINGKVRSKLTVAPETDEKQIEALALADPKVQQQLEGKRVLKVIVAQKRLVNIVA
- soluble fraction (log2): -0.161
